Source: paper PMC11040352, “CD38‐Specific Gallium‐68 Labeled Peptide Radiotracer Enables Pharmacodynamic Monitoring in Multiple Myeloma with PET” (Advanced Science, 2024)
Starred links: 1 amine or outer side, 2 acyl side, 3 side chain; linkers in the order of their positions; H or OH if unused. Positions of bridges follow the written chain, without caps; N, C: chain ends. Primed or numbered codes have the meaning given here. *: point of attachment. NOTA = O=C(O)CN1CCN(CC(=O)O)CCN(CC(=O)*)CC1; TBMB = c1c(C[*:1])cc(C[*:3])cc1C[*:2]; PEG3′ = not defined here

Target: His-Tagged human CD38 (recombinant) (human) (UniProt P28907)
Experiment: SPR; Biacore T200, CM5 chip, 25 °C; His-tagged CD38 captured by immobilised anti-His antibody (human about 860 RU, mouse 1360 RU); AJ206 as analyte, 300 × 10^-9 M down to 1.2 × 10^-9 M; PBS-P + 1% DMSO, pH 7.4; 50 µL/min; contact 120 s, dissociation 360 s

Kd: 19.1 nM
Binder: {NOTA-PEG3′}-ACVPCADFPIWYC-NH2 (linker 2-5-13 via TBMB) [AJ206]
